# Measured values reported in the supplement of paper PMC10065799, “High-throughput profiling of sequence recognition by tyrosine kinases and SH2 domains using bacterial peptide display” (eLife, 2023).
# Assays:
# [1] = target: SHP2-C SH2; assay: SH2 binding enrichment of the phosphorylated peptide, bacterial display (enrichment ratio); higher = better substrate or ligand; peptides without Tyr show the background
# [2] = target: c-Src SH2; assay: as above
# [3] = target: Grb2 SH2 (UniProt P62993); assay: as above
# [4] = target: FGFR1 (UniProt P11362); assay: phosphorylation enrichment, bacterial display (enrichment ratio); higher = better substrate or ligand; peptides without Tyr show the background
# [5] = target: EPHB2 (UniProt P29323); assay: as above
# [6] = target: Hck (UniProt P08631); assay: as above
# [7] = target: EPHB1 (UniProt P54762); assay: as above
# [8] = target: MERTK (UniProt Q12866); assay: as above
# [9] = test system: c-Src; assay: as above
# [10] = target: FGFR3 (UniProt P22607); assay: as above
# [11] = target: Fyn (UniProt P06241); assay: as above
# [12] = test system: c-Abl (mouse); assay: as above
# [13] = test system: AncSZ; assay: as above
# [14] = test system: Fer (mouse); assay: as above
# [15] = target: Fes (UniProt P07332); assay: as above
# [16] = target: Jak2 (UniProt O60674); assay: as above
# 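For SH2 binding enrichment of the phosphorylated peptide, bacterial display in this document: peptide library displayed on the E. coli surface as eCPX fusions, selected cells deep-sequenced, score is each peptide's frequency after selection divided by its frequency in the input.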
# 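For phosphorylation enrichment, bacterial display in this document: 11-residue human phosphosite peptides and single-mutation variants displayed on the E. coli surface, counted by deep sequencing, each peptide's frequency after selection divided by its frequency in the unselected input library; frequency after pTyr selection over input frequency; kinase dosed for 20-30% of maximal phosphorylation in three min.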
# Chain of EPHB2 (P29323 whole entry, looked up): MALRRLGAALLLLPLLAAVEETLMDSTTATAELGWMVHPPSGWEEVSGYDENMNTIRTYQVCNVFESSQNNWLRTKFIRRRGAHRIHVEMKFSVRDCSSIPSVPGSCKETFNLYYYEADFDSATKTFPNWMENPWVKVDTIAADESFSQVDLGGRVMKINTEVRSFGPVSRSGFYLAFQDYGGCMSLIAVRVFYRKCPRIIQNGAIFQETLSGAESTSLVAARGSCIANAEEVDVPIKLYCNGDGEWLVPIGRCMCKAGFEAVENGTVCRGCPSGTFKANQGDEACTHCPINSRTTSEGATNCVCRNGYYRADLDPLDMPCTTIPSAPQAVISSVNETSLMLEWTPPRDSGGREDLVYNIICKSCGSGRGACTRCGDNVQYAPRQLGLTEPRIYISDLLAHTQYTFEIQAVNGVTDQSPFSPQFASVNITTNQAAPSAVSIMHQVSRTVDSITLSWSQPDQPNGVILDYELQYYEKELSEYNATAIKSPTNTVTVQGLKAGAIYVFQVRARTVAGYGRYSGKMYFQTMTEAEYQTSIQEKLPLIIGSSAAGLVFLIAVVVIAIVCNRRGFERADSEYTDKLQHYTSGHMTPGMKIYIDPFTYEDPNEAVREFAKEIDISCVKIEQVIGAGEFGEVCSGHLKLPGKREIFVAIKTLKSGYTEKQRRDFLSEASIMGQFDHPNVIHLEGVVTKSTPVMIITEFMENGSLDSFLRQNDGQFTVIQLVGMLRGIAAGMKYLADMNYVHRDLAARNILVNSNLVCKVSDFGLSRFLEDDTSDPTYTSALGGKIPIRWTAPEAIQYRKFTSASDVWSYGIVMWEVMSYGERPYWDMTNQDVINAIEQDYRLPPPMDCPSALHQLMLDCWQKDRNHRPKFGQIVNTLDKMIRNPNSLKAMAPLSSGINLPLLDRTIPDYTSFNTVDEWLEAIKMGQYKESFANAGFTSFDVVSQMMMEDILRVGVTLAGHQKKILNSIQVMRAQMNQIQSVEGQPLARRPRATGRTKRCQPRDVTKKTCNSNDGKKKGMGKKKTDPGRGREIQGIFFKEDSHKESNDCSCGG
# Chain of Fes (P07332 whole entry, looked up): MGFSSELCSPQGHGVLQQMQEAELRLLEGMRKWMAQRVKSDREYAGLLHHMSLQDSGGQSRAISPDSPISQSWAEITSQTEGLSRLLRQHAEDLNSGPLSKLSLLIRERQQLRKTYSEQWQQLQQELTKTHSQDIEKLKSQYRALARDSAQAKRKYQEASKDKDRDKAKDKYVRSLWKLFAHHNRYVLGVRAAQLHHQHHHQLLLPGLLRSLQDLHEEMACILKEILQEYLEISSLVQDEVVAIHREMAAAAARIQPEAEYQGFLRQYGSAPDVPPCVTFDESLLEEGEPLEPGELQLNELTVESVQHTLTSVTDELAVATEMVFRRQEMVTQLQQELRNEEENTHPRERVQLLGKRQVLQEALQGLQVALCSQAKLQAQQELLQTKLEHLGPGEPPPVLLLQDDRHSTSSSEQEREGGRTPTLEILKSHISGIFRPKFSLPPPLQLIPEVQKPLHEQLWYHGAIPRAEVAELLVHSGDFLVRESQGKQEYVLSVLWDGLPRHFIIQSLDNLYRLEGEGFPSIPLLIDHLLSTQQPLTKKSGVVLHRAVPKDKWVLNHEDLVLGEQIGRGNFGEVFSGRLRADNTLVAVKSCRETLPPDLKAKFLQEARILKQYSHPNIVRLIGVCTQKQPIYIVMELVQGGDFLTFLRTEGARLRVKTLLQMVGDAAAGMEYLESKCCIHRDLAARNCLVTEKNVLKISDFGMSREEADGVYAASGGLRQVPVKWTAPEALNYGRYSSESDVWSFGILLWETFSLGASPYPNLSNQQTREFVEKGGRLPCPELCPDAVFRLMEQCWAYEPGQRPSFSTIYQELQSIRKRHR
# Chain of EPHB1 (P54762 whole entry, looked up): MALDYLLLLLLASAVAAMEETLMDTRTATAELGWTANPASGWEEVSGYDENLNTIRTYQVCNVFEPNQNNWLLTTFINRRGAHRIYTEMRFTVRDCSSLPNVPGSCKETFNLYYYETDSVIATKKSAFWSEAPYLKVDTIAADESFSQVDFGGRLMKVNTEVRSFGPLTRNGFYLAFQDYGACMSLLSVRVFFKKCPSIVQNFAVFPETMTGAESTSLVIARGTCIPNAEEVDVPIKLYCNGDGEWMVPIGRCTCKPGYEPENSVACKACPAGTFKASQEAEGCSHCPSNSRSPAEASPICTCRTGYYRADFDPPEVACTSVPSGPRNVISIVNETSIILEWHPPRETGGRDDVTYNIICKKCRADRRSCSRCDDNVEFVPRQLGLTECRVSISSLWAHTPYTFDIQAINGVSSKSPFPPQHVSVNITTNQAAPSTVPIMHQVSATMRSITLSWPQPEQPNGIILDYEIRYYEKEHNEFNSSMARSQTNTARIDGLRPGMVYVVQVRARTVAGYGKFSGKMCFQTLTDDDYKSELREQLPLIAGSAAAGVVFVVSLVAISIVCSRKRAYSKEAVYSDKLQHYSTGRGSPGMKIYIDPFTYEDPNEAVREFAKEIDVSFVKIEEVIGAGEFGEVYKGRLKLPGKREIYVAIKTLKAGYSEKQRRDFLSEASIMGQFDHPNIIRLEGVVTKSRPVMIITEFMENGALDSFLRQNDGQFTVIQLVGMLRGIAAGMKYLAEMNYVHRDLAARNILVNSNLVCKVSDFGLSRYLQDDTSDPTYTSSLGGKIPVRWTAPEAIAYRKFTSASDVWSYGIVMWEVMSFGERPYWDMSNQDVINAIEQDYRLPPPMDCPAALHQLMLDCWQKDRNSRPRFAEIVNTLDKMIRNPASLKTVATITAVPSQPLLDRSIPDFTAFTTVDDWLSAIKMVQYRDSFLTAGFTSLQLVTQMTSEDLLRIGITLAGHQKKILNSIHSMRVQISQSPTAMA
# Chain of MERTK (Q12866 whole entry, looked up): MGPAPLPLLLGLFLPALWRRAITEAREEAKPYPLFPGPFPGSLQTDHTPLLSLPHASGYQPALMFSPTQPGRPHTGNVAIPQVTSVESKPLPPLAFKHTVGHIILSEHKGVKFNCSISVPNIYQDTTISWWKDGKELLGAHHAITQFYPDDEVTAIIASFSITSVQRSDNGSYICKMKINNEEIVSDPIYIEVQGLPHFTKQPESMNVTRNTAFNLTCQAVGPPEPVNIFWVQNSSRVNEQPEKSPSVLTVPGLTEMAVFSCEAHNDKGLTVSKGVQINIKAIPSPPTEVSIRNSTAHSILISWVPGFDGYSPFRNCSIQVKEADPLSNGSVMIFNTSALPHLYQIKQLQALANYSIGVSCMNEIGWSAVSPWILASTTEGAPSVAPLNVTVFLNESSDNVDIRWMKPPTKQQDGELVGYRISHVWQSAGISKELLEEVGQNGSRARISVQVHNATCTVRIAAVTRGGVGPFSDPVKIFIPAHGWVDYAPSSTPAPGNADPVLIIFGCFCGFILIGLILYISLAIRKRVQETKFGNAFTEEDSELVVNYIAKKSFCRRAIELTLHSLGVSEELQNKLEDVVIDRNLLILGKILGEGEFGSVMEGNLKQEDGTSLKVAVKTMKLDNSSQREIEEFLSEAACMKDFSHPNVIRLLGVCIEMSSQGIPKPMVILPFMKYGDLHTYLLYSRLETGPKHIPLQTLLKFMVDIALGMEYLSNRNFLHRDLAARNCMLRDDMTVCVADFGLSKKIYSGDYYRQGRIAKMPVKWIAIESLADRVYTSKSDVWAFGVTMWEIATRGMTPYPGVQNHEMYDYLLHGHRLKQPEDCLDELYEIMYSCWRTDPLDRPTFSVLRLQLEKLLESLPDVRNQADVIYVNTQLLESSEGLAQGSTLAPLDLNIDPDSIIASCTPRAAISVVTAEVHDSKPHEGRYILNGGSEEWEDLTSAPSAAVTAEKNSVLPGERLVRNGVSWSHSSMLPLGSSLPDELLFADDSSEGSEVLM
# Chain of Jak2 (O60674 whole entry, looked up, the tested form may be a part): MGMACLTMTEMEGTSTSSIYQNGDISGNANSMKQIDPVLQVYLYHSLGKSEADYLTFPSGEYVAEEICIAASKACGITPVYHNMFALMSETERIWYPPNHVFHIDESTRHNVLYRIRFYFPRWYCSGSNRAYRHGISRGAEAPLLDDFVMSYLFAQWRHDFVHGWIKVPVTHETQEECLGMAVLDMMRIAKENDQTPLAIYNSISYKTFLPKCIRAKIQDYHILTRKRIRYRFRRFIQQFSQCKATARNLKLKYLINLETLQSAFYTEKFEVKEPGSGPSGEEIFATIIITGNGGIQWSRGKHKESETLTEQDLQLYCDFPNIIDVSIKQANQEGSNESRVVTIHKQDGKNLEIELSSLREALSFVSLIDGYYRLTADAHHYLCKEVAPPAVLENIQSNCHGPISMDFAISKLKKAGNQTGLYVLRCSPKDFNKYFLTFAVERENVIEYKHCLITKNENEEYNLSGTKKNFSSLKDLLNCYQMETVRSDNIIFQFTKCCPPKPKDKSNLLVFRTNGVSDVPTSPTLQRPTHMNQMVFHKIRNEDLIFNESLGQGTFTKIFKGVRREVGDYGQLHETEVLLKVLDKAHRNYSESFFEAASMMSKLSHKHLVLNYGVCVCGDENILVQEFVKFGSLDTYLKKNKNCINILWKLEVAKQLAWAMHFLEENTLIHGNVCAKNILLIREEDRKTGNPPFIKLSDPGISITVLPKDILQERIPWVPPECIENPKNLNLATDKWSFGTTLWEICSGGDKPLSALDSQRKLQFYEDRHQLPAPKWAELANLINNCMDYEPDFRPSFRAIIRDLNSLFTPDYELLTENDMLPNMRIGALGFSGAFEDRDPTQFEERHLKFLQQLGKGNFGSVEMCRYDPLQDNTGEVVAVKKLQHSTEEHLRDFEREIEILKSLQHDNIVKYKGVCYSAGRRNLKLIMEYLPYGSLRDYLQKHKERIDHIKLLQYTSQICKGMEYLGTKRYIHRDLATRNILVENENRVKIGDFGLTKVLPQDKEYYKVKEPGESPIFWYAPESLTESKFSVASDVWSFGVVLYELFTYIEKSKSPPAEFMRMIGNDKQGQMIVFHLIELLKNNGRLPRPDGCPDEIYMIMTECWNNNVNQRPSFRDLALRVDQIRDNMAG
SH2 binding enrichment [1],SH2 binding enrichment [2],SH2 binding enrichment [3],Sequence,phosphorylation enrichment [4],phosphorylation enrichment [5],phosphorylation enrichment [6],phosphorylation enrichment [7],phosphorylation enrichment [8],phosphorylation enrichment [9],phosphorylation enrichment [10],phosphorylation enrichment [11],phosphorylation enrichment [12],phosphorylation enrichment [13],phosphorylation enrichment [14],phosphorylation enrichment [15],phosphorylation enrichment [16]
1.04,0.612,0.754,MDQAEYQAKIR [DHX58_Y518],0.441,0.476,0.424,0.299,0.446,0.43,0.412,0.477,0.729,0.616,0.433,0.708,0.659
0.677,0.562,0.772,MENFIYESMRF [CYP19A1_Y361_YF],0.551,2.63,7.67,4.14,3.74,6.6,0.577,8.61,2.71,1.3,14.1,5.1,0.626
1.19,0.498,0.723,MEYLPYGSLRD [JAK2_Y934],1.15,1.41,5.07,2.63,0.511,4.9,1.02,4.56,1.02,1.45,1.25,1.26,1.41
3.37,2.54,0.804,MGSYNYLGFAR [SPTLC2_Y178],1.3,0.949,2.99,2.42,6.56,1.1,1.04,0.758,0.956,0.831,0.707,1.05,2.89
0.349,2.1,0.601,MHRRQYELLGG [GNAS_Y391_L388R],0.5,0.426,0.409,0.28,0.391,0.336,0.425,0.371,0.416,0.577,0.307,0.715,0.48
0.233,0.438,0.728,MKKKTYAMGGG [GAN_Y424_I423T],0.653,1.09,0.908,0.857,0.578,1,0.531,0.428,0.761,0.705,0.567,0.862,0.865
0.672,0.548,0.9,MKKMHYVDPDH [ST3GAL5_Y99],0.338,0.311,0.367,0.32,0.332,0.402,0.357,0.364,0.41,0.512,0.32,0.513,0.392
0.481,0.515,0.686,MNLLGYRQVRS [CHST4_Y359_H361Q],0.399,0.448,0.45,0.439,0.438,0.411,0.614,0.468,0.679,0.693,0.359,0.72,0.566
0.409,0.453,0.763,MSLRSYGSREG [APC_Y96],0.373,0.42,0.387,0.416,0.418,0.458,0.414,0.398,0.491,0.723,0.413,0.586,0.451
0.7,0.466,0.797,MSNFAYVKREV [SCN1A_Y1694],0.447,0.437,0.552,0.457,0.471,0.388,0.61,0.418,0.516,0.729,0.419,0.986,0.651
1.14,0.716,1.34,MTFVFYRENLR [NLRP14_Y443_YF],0.562,0.719,0.525,0.585,0.369,0.288,0.927,0.48,0.668,1.42,0.576,1.34,1.13
0.487,0.517,0.968,MTKEQYIKMNQ [ARFGEF2_Y797_R802Q],0.687,0.575,0.443,0.38,0.381,0.341,0.637,0.347,0.665,0.662,0.399,0.805,0.706
0.744,0.44,0.748,MVTSGYKAKTI [EFR3A_Y447],0.299,0.312,0.322,0.337,0.377,0.292,0.375,0.361,0.42,0.413,0.314,0.458,0.364
0.817,0.612,0.728,NFADPYRQLPF [CTNND2_Y503_Q507P_YF],0.661,0.58,0.659,0.432,0.417,0.642,0.652,0.587,0.638,0.732,0.46,0.728,0.62
0.633,2.03,0.789,NFAKMYCNPDA [KNL1_Y489_YF],0.569,0.706,0.572,0.502,0.536,0.538,0.636,0.569,0.836,0.942,0.517,1.02,0.766
